The text below walks through data of paper PMC9386465.

The target of data set [1] is T1, ErmS (TlrA) rRNA adenine-N6 dimethyltransferase (Streptomyces fradiae, UniProt P45439 1-319).
T1 sequence: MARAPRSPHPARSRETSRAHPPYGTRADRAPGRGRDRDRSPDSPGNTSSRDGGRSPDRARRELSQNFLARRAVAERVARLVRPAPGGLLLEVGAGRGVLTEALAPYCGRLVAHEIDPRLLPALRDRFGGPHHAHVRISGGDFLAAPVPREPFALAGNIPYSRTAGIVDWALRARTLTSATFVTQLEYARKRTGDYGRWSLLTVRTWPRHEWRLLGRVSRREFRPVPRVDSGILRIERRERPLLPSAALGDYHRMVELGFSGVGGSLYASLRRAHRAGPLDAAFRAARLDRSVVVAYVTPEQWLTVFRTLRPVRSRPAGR
Briefly: stopped-flow fluorescence.

In data set [2] the target is T1, ErmS (TlrA) rRNA adenine-N6 …. The data set is described as follows: stopped-flow fluorescence. The source holds these as a separate data set.

Like-named read-outs stand apart in the source and are kept apart here.

For the molecule GGCAAGACGGAAAGACCCCUAUCUGCC (structured_RNA, 2-aminopurine replaces A2054 (nt 7)) [2Ap2054], in data set [1], the binding result is “binds”.
In the case of GGCAAGACGGAAAGACCCCUAUCUGCC (structured_RNA, 2-aminopurine replaces A2058 (nt 11)) [2Ap2058], the binding result in data set [2] was “binds”.
